# Test results: the DeepSol protein solubility set
# Test: soluble on expression in E. coli; label from the status in PepcDB or PDB records
row,Sequence,soluble on expression in E. coli
1,MCLEPIIAPISSELLEQELTADRFLRMTNKAGNEIYVFTAEEAPHCMKEVGRLREEAFRHYGGGTGKAIDIDEFDTMPGSYKQLIVWDPQNKAILGGYRFIYGRDVAFDTDGKPLLATAEMFRFSDAFLHDYLPYTVELGRSFVSLQYQSTRMGTKAIFVLDN,not soluble
2,MGHHHHHHMPEINTNHLDKQQVQLLAEMCILIDENDNKIGAETKKNCHLNENIEKGLLHRAFSVFLFNTENKLLLQQRSDAKITFPGCFTNTCCSHPLSNPAELEESDALGVRRAAQRRLKAELGIPLEEVPPEEINYLTRIHYKAQSDGIWGEHEIDYILLVRMNVTLNPDPNEIKSYCYVSKEELKELLKKAASGEIKITPWFKIIAATFLFKWWDNLNHLNQFVDHEKIYRM,soluble
3,MAVQKNVIKGILAGTFALMLSGCVTVPDAIKGSSPTPQQDLVRVMSAPQLYVGQEARFGGKVVAVQNQQGKTRLEIATVPLDSGARPTLGEPSRGRIYADVNGFLDPVDFRGQLVTVVGPITGAVDGKIGNTPYKFMVMQATGYKRWHLTQQVIMPPQPIDPWFYGGRGWPYGHGGWGWYNPGPARVQTVVTE,not soluble
4,MGSDKIHHHHHHMARLPLKQFLADNPKKVLVLDGGQGTELENRGIKVANPVWSTIPFISESFWSDESSANRKIVKEMFNDFLNAGAEILMTTTYQTSYKSVSENTPIRTLSEYNNLLNRIVDFSRNCIGEDKYLIGCIGPWGAHICREFTGDYGAEPENIDFYQYFKPQLENFNKNDKLDLIGFETIPNIHELKAILSWDESILSRPFYIGLSVHEHGVLRDGTTMEEIAQVIKDLGDKINPNFSFLGINCVSFNQSPDILESLHQALPNMALLAYPNSGEVYDTEKKIWLPNSDKLNSWDTVVKQYISSGARIIGGCCRTSPKDIQEISAAVKKYT,not soluble
5,MSLQIVFPTPNQVEMQTGNLILGKKVSMYAEDTTAFYLNLFREEVLSHTPIKWQKKESKADICWITDSSLPPEGYRIKIHPQQMVISASDKGGFTYAVQTLRQWVAGSAGSITFACASVTDYPRTQWRCFLLDSGRQFQKITTIRKYIDMASLLKMNYFHWHLTEGLGWRIEIKQYPHLTRTGGSVGKGEEQQGFYTQEEIRDIIEYARQRNITIVPEIDMPGHAEAALSAYPELGCFGLPVEIPQSGFTQNIFCAGKDGTLRFLKNVLDEVCALFPSPYIHLGGDEAPKGNWDQCPDCRKRITTEGLKDSHDLQLWFSAQMANYLKSKGRKAIFWGDVVYHDGYPLPDNTVIQWWNYRGHKDLALRNAVKHHYPVICSSNYYTYLNFPVTPWKGYTEARTFDLKDVYLNNPSDKAISEKNPLILGMSCALWTDDGVTERMIDRRLFPRILALSEQMWHEGEALDFDRFYRNILHRKAWFEEAGFEFGPALKEDVTKDYKWDEGHHHHHH,soluble
6,MAHHHHHHMNIEDDENKEKKETCLSYIKKINMSEIINDEAIGKRAEYLWNLALSAVYINVKLSMKYITLIKKITKNNLLFDNICCHYCNLIYIPFYNCKITHSPNQGKATYTCLLCKRKKKINLQHLSKHKNIYPLKHSDKHKPSTSNLSNVNFFLINEIDNYEIKKNNVPLNKDDTSNTENQLITKQENKNEDILKDVSCADMQKEEHIINQDNIINQDNIINQDNIINQDNIINQDNIINQDNIINQDNIINQDNIINQDNIINQDNIINKNDMYQNLSYLFRIDYGINKDDTQKGNEIYDKSIVNESEKCKSVHIENNKNDDNKNMNSESKNIKNERKRKSQNNNIAQNKNQGFPNVNMNDGFLNFNKSKKKKGKSILDIL,not soluble
7,MVAPETERIRTQIRVYLLVEDLQRQFAAYLGTPTRARGYPPYEGEHALIVEVSPALAIERVIDLALRAVPGVQPGILYVERQFGVLEIHSASLDEVRRAGEAILAGTGNRAEDQLRPRVLFHDIITDITDQHAVILNRNRQASMILPGQSLLVYEMTPALFAAVAANEAERVAPGLTVVDVQMIGAAGRLYIGGSTDEVTVARDHITTVLSAIEGQEH,not soluble
8,EDCQNLLKPCSLCEKRPRDGNIIHGRTGHLVTCFHCARRLKKAGASCPICKKEIQLVIKVFIA,soluble
9,MSLSRSLSECIDQGRGLVPADLVLKHGRVFDLVTGELVQTDVAICGDRIVGTFGTYTGRREIDCRGRILVPGFIDTHLHVESSLVTPFEFDRCVTPRGITTAICDPHEIANVCGLEGIRYFLEASAHLVMDLRVQLSSCVPSTHMETAGAALEAKDLAPLMDHPRVIGLAEFMNFPGVLMKDPGCMAKLEAFRGRHIDGHAPLLRGKDLNGYIAAGIRTEHEATTAEEALEKLRKGMRVLIREGSVSKDLHALVSILTERHAPYLCLCTDDRNPLDIAEHGHIDHMIRTAIRLGAPPLAVYRAASLSAADAFGLKDRGLIAPGRRADIAVLDSLEGCHAALVLAGGVVADDAAFSARSDIEPVARASVKVAEIAPEAFRCPGNRADTPVIGILPGKIITEHLTAEIEPVDGDKRPDPVRDLARIAVIERHGKTGGRATGFVRGFGMARGAIASTVCHDHHNLAVVGIDYADMALAANRLRALEGGFAVAAGGEILAELALPVGGLMSLRPFEEVRDALVTLREAARSLGVTLEEPFLQLAFLALPVIPHLKITDRGMVDVDRFEILEGHHHHHH,soluble
10,MAGDPMQKVKSDILTHRGSHFDLGVQTAQWMQHTPLLKNREQEWKKRMPRFDIHIKETYDIFQTYAPQIWEEIRGMQEVLNLPTRQMILNFAHYRFTPLKNSGCTVYLGNDYMVRNYDYHPATYDGRYLLFQPNDGGLAQIGPTSRVTGRMDGMNEAGLAMGYNFMHRKHPGDGFVCYMIGRLVLQYCKDVPEAIKLLKEIPHRSSFSYIVMDKYLNHAIIEVTPRSIDVRYDHTCTNHFKLLTHENRNYTKESTERLDRLIKQTPAQLGKMDAFKLFNNPEFEIYSKLFKSWSGTIHTSMYEPQSLTAHITLGENKAPVEIDFQQWLNGESLNINELTGQIDTELTFATYLEHHHHHH,not soluble
11,MGSDKIHHHHHHMRRVNRPAPLSERQYEYMQRCINSWFNVAEGGKRGGKNVLQTLIFCSLLETHKNKIHLVAGVSSATAKLNILDCDGYGLLNYFEGRCREGKYKDRDCVYVQTKTGEKIVLVSGGGKDGDEKLIKGNTYGMAYVTEANECHQKFLKEVFDRTLSSTDRKIFHDLNPKEEEHWYYTEILKFHEEQQANDENYGYNYGHFTLVDNMSMSDEKIRTVLKTYQKGTVWYKRDIKGERAVAEGIIFRKFKENNIPYLCDDSILKYNKDGELFPRPSKVIIGMDFGGNGSMTTMVCSLYFRGYHFIYPVEEDYLELSPDIDANNICDKYIEFYRRCAAKYERIDWTFPDSASTTMINSLRSAAKKDGLRYDHIAGCRKNEISERPRTVDLLLNTGRMKVHKRCVNLRKAIGTLKWDEKHPNIPEDKNIGNCNDWWDALCYTMLDFIEYIDLDR,not soluble
12,MAYEISKKVLHIVGKTNATYKLIEEGDKILLGLSGGKDSIMLACILARMQKHAPFKFDFKAVTVHYGLGEDLKWLSDLCQEQGIEHEIIYTQIAATINEKRREKSSFCSFCSRLRRGTLYSKALEEGYNKVAIAHHLDDAVESFFMNFTYNGSLRSMPPIYRAENGLLVIRPLIKVREASSIHFVTSQNIPVAPDCNCPAKQPTSDKPPIARLATKNFLKEMQNLHPRFFDSLENAFNNVQANSFSDAKYLDALEHHHHHH,soluble
13,MGPHFTLLLAALANCLCPGRPCIKCDQFVTDALKTFENTYLNDHLPHDIHKNVMRMVNHEVSSFGVVTSAEDSYLGAVDENTLEQATWSFLKDLKRITDSDLKGELFIKELLWMLRHQKDIFNNLARQFQKEVLCPNKCGVMSQTLIWCLKCEKQLHICRK,not soluble
14,MKRLLLLGGIGEALALARRLGPAHLYSLAGLGKVPGDLACRVRVGGYGGAEGLAAFIDEQGFDLLVDATHPYAARISQNAVRAARLAGVPCWALRRPGWQAGPGDDWREVADWRELIAALTPFRRPLFTLGREPLEHLGQVPPHQHWTVRCLQGQPAAPRAEVIGARGPFSLDGERALFERLACDVLVSKNSGSQATEPKLQVAREMGLPVLVLARPALPPADREFADGEALLTAIRDWESA,not soluble
15,MDRLKAMQVFVEVADRGSLSAAAMHLGMSRAMVSRYLAELEAWVGVRLLHRTTRRLSLTPAGSETLPRCRRMLEMVGDMREAVAAPDAEPRGLLRVTAAMSFGGAQLAEAVAEFVRRHPAASIDLLLVDRAVNLVEERVDLAVRITNDLDPNLIGRRLADCRSVVCAAPQYLQQHGAPARAEDLSLHNCLTHSYFGRSLWRFERAGEPVEVPVGGNITANETDVLMRAALAGAGIVMLPTYLAAGQIAAGTLRPLLPDCAPPVLGIHGVYVSRKQMPLILRTMLDFLAERFNPAPWDAALEGR,not soluble
16,MEITDVRIRKIDSEGKMKAVVSVTFDNEFVVHDIKVIESQNGLFIAMPSRKAPDGEFRDIAHPINAETRSKIQTAILDKYESICAGSTETEGNN,soluble
17,MSLENRGILFDKDGTCIRFDTLWQAGLQACFETLSMLAPHHSAEIKKILAIQEQRFLQKHLLDEVLYQELYQELAQFEELVEQGISSRWLEQFFYDYLRKNLKKIEPIGDLKQLFLELKRKNYKIGLATSDTLPATMLIMEYLGLTEMFDFIATGDRYLPKPDADMLQAFCQSCQLKATEVIMVGDSLVDVFMGTCHGKAGIGVLTGNCQSTDFEKFEVAYFRDIHEIPYQELWGNTKKKKIYYVEGHHHHHH,soluble
18,SDTGFADSNNDSSPGEGSKRGNSGIEGPVPMDVELAAAKSKRLSEPFFLKNVLLEKSGDTSDLTALALSVHAVMLESGFVLLDHGSDKFSFSKKLLSVSLRYTLPELITRKDTNTVESVTVRFQNIGPRLVVYGTLGGSCKRVHMTSLDKSRFLPVIDLVVDTLKFEKQGSSSYYREVFMLWRMVKDELVIPLLIGLCDKAGLESPPCLMLLPTELKLKILELLPGVSIGYMACVCTEMRYLASDNDLWEHKCLEEGKGCLWKLYTGDVDWKRKFASFWRRKRLDLLARRNPPIKKSNPRFPTLFPDRRDRREPFDRFGPSDFYRFGLRDPRDRFGPRDPRDPHFYGFRY,soluble
19,MADLSFIEDTVAFPEKEEDEEEEEEGVEWGYEEGVEWGLVFPDANGEYQSPINLNSREARYDPSLLDVRLSPNYVVCRDCEVTNDGHTIQVILKSKSVLSGGPLPQGHEFELYEVRFHWGRENQRGSEHTVNFKAFPMELHLIHWNSTLFGSIDEAVGKPHGIAIIALFVQIGKEHVGLKAVTEILQDIQYKGKSKTIPCFNPNTLLPDPLLRDYWVYEGSLTIPPCSEGVTWILFRYPLTISQLQIEEFRRLRTHVKGAELVEGCDGILGDNFRPTQPLSDRVIRAAFQLEHHHHHH,soluble
20,MGSDKIHHHHHHMDQFDRTPLMTADSEALATARRVLATEARALDSLATSLGDAFLKAVTLIEGAPGRVVVTGMGKSGHVARKIAATMASTGCPAFYVHPAEASHGDLGMVTRDDAVVALSNSGETPELSDVIAYTRRFEIPLIGITSRDGSTLAAASDVALVLPPNPEACPMGLAPTTSTTLMLALGDALAVTLLERKGFTAADFQVFHPGGKLGQRLLKVTDLMHGGDGLPLVGTEASMADVLLVMTAKSLGCAGVIDSGGKLAGVLTDGDLRRHMSPDLLTAKAAEVMTASPRTVPPNLLAAEALRQMNERSITSLFVVESDGRPVGVLHVHDCLRAGLA,not soluble
